Test results reported in doi:10.1101/2024.05.16.594476 (bioRxiv, 2024).

B2: Mtb RNAP σ^A (natural protein)
chain: MAATKASTATDEPVKRTATKSPAASASGAKTGAKRTAAKSASGSPPAKRATKPAARSVKPASAPQDTTTSTIPKRKTRAAAKSAAAKAPSARGHATKPRAPKDAQHEAATDPEDALDSVEELDAEPDLDVEPGEDLDLDAADLNLDDLEDDVAPDADDDLDSGDDEDHEDLEAEAAVAPGQTADDDEEIAEPTEKDKASGDFVWDEDESEALRQARKDAELTASADSVRAYLKQIGKVALLNAEEEVELAKRIEAGLYATQLMTELSERGEKLPAAQRRDMMWICRDGDRAKNHLLEANLRLVVSLAKRYTGRGMAFLDLIQEGNLGLIRAVEKFDYTKGYKFSTYATWWIRQAITRAMADQARTIRIPVHMVEVINKLGRIQRELLQDLGREPTPEELAKEMDITPEKVLEIQQYAREPISLDQTIGDEGDSQLGDFIEDSEAVVAVDAVSFTLLQDQLQSVLDTLSEREAGVVRLRFGLTDGQPRTLDEIGQVYGVTRERIRQIESKTMSKLRHPSRSQVLRDYLD
B3: Mtb RNAP β subunit (natural protein)
chain: MLEGCILADSRQSKTAASPSPSRPQSSSNNSVPGAPNRVSFAKLREPLEVPGLLDVQTDSFEWLIGSPRWRESAAERGDVNPVGGLEEVLYELSPIEDFSGSMSLSFSDPRFDDVKAPVDECKDKDMTYAAPLFVTAEFINNNTGEIKSQTVFMGDFPMMTEKGTFIINGTERVVVSQLVRSPGVYFDETIDKSTDKTLHSVKVIPSRGAWLEFDVDKRDTVGVRIDRKRRQPVTVLLKALGWTSEQIVERFGFSEIMRSTLEKDNTVGTDEALLDIYRKLRPGEPPTKESAQTLLENLFFKEKRYDLARVGRYKVNKKLGLHVGEPITSSTLTEEDVVATIEYLVRLHEGQTTMTVPGGVEVPVETDDIDHFGNRRLRTVGELIQNQIRVGMSRMERVVRERMTTQDVEAITPQTLINIRPVVAAIKEFFGTSQLSQFMDQNNPLSGLTHKRRLSALGPGGLSRERAGLEVRDVHPSHYGRMCPIETPEGPNIGLIGSLSVYARVNPFGFIETPYRKVVDGVVSDEIVYLTADEEDRHVVAQANSPIDADGRFVEPRVLVRRKAGEVEYVPSSEVDYMDVSPRQMVSVATAMIPFLEHDDANRALMGANMQRQAVPLVRSEAPLVGTGMELRAAIDAGDVVVAEESGVIEEVSADYITVMHDNGTRRTYRMRKFARSNHGTCANQCPIVDAGDRVEAGQVIADGPCTDDGEMALGKNLLVAIMPWEGHNYEDAIILSNRLVEEDVLTSIHIEEHEIDARDTKLGAEEITRDIPNISDEVLADLDERGIVRIGAEVRDGDILVGKVTPKGETELTPEERLLRAIFGEKAREVRDTSLKVPHGESGKVIGIRVFSREDEDELPAGVNELVRVYVAQKRKISDGDKLAGRHGNKGVIGKILPVEDMPFLADGTPVDIILNTHGVPRRMNIGQILETHLGWCAHSGWKVDAAKGVPDWAARLPDELLEAQPNAIVSTPVFDGAQEAELQGLLSCTLPNRDGDVLVDADGKAMLFDGRSGEPFPYPVTVGYMYIMKLHHLVDDKIHARSTGPYSMITQQPLGGKAQFGGQRFGEMECWAMQAYGAAYTLQELLTIKSDDTVGRVKVYEAIVKGENIPEPGIPESFKVLLKELQSLCLNVEVLSSDGAAIELREGEDEDLERAAANLGINLSRNESASVEDLA
B4: Mtb RNAP α subunit (natural protein)
chain: MLISQRPTLSEDVLTDNRSQFVIEPLEPGFGYTLGNSLRRTLLSSIPGAAVTSIRIDGVLHEFTTVPGVKEDVTEIILNLKSLVVSSEEDEPVTMYLRKQGPGEVTAGDIVPPAGVTVHNPGMHIATLNDKGKLEVELVVERGRGYVPAVQNRASGAEIGRIPVDSIYSPVLKVTYKVDATRVEQRTDFDKLILDVETKNSISPRDALASAGKTLVELFGLARELNVEAEGIEIGPSPAEADHIASFALPIDDLDLTVRSYNCLKREGVHTVGELVARTESDLLDIRNFGQKSIDEVKIKLHQLGLSLKDSPPSFDPSEVAGYDVATGTWSTEGAYDEQDYAETEQL

Legend:
Mtb RNAP σ^A = molecular target: B2; assay: cryo-EM structure
Mtb RNAP α subunit = molecular target: B4; assay: cryo-EM structure
[1] = molecular target: T1, Mtb PhoP, phosphorylated with acetyl phosphate (AcP) (Mycobacterium tuberculosis, UniProt P71814 1-247); assay: cryo-EM structure
Mtb RNAP β subunit = molecular target: B3; assay: cryo-EM structure
[2] = molecular target: T1, Mtb PhoP, phosphorylated with acetyl …; assay: […]

B1: Mtb GlnR, the nitrogen metabolism regulator (natural protein)
chain: MLELLLLTSELYPDPVLPALSLLPHTVRTAPAEASSLLEAGNADAVLVDARNDLSSGRGLCRLLSSTGRSIPVLAVVSEGGLVAVSADWGLDEILLLSTGPAEIDARLRLVVGRRGDLADQESLGKVSLGELVIDEGTYTARLRGRPLDLTYKEFELLKYLAQHAGRVFTRAQLLHEVWGYDFFGGTRTVDVHVRRLRAKLGPEHEALIGTVRNVGYKAVRPARGRPPAADPDDEDADPGRDGMQEPLVDPLRSQ
binding result (Mtb RNAP σ^A): binds
binding result (Mtb RNAP α subunit): binds
binding result [1]: binds
binding result (Mtb RNAP β subunit): binds

B2
binding result [2]: binds

B3
binding result [2]: binds

B4
binding result [2]: binds
